Data reported in the supplement of paper PMC12042874.
± gives the uncertainty stated by the source.

Assay: amyloid nucleation score (Sup35N fusion, yeast selection) (log enrichment); library NNK2; higher = more nucleation; inactive = no reads after selection
Summary of the method: (§1)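 The nucleation score is a DiMSum log enrichment of output over input reads, centred on the mode score of non-aggregating sequences. Sequences under 100 input reads were excluded, and reads came from Illumina sequencing of plasmid inserts. Psi-negative yeast expressing Sup35N fused to peptides of 20 random codons were induced with 100 μM copper sulfate for 24 hours and grown 7 days at 30°C on medium lacking adenine and uracil. Random libraries had three technical output replicates.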
With MISESF the amyloid nucleation score was 0.403 ± 0.56. Substance FILDAVGNFFCFVRHTTPQV has an amyloid nucleation score of 0.106 ± 1. With SHFADSKVHVWSMSQLATCC the amyloid nucleation score was 0.22 ± 0.29. VFEYFRCPYIHNLLFFSAWL showed an amyloid nucleation score of 1.9 ± 0.19. TYMSYFSSTWKILVGAHWRR showed an amyloid nucleation score of 1.85 ± 0.18. For LKNVCFCIWRISWNKISQKI, the amyloid nucleation score was “inactive”. For LIPLIVLGGTDSFKELYGYE, the amyloid nucleation score was -0.624 ± 0.61. In the case of NDRILPYSNLWHWERLV, the amyloid nucleation score is reported as -0.567 ± 1.1. Substance IVSTV has an amyloid nucleation score of 0.655 ± 0.49. In the case of VRIYTHWTRSYRPKFRSTWT, the amyloid nucleation score is reported as 0.641 ± 0.74. HISCMKLLSRLGYTCESLMW showed an amyloid nucleation score of -1.19 ± 0.55. AVGNMDVQEGFTTSRADRGL showed an amyloid nucleation score of 0.913 ± 0.21. FYKGWMVLALNDNSVVSINV gave an amyloid nucleation score of 3.42 ± 0.085. With LHNDLLKVNSERENNNDLGS the amyloid nucleation score was 0.089 ± 0.5. With IFNDVIFNLRFC the amyloid nucleation score was 7.443 ± 0.054. With KVGERISPELSGMFYGTLWY the amyloid nucleation score was -0.305 ± 0.74. With NYRFVCWDYISWVMVWTSI the amyloid nucleation score was “inactive”. With AIWYFFIRNYYPSLLQKRSL the amyloid nucleation score was 1.89 ± 0.12. For DYVMYPGLVAMLSVSTPSQE, the amyloid nucleation score was 0.477 ± 0.49. Work on HINFRSVITVV yielded an amyloid nucleation score of -0.81 ± 0.44. MLALLCVNNWEGCYWYVGSV gave an amyloid nucleation score of 6.827 ± 0.063. With LLRTHTSYRL the amyloid nucleation score was -0.836 ± 0.55. With LWHGYGRFRVLSVVF the amyloid nucleation score was 3.53 ± 0.045. For FFSRTKYDSSRLKPWGMDIS, the amyloid nucleation score was 0.523 ± 0.64. With LLHGSLWAQSMSLCWLNVTG the amyloid nucleation score was 4.24 ± 0.088. Work on MGGLNLCLWSSGLMLVGTGR yielded an amyloid nucleation score of 5.237 ± 0.043. For TSFGCWSQAYKMMRFDLCSV, the amyloid nucleation score was -0.145 ± 0.21. TRDNST gave an amyloid nucleation score of 0.32 ± 0.53. In the case of ELVYHLSNLKG, the amyloid nucleation score is reported as -0.381 ± 1.1. For NLRVSFGREDCL, the amyloid nucleation score was -0.347 ± 0.55. Substance VVSVCLLGHNDKVLSYAQLC has an amyloid nucleation score of 0.071 ± 0.51. Substance PVCCFAHMIIHYNCLGQKAY has an amyloid nucleation score of 2.08 ± 0.12. With TLGLHGED the amyloid nucleation score was 0.23 ± 0.31. For INKVFNCYFLFSGHIVGLRS, the amyloid nucleation score was -0.321 ± 0.79. In the case of SPLCVF, the amyloid nucleation score is reported as -0.211 ± 0.38. DRTGGPIWVVGYPARGRAAL showed an amyloid nucleation score of 0.99 ± 0.29. YADLISSWVILGWFQRKTLF gave an amyloid nucleation score of 0.228 ± 1. Substance RCTKA has an amyloid nucleation score of 0.341 ± 0.21. In the case of FLVYYINFIAAKCRPKSNLR, the amyloid nucleation score is reported as “inactive”. Work on IFSNLRSFE yielded an amyloid nucleation score of 0.657 ± 0.22. SFIGLETCQFSFHLIF gave an amyloid nucleation score of 4.15 ± 0.092. For GQFGVCITSPARQLSYD, the amyloid nucleation score was “inactive”. VLVGVEWFV showed an amyloid nucleation score of 0.318 ± 0.38. Substance HSFHTVSTARRLKQDPYMR has an amyloid nucleation score of -0.387 ± 0.64. For EMWSISIKISGR, the amyloid nucleation score was 0.763 ± 0.57. In the case of GALMMMVEGSESVNKVHFVY, the amyloid nucleation score is reported as -1.05 ± 0.44. Substance FDWQRLMG has an amyloid nucleation score of 0.196 ± 0.64. In the case of SSTVCCHALVCSVSNFGFTV, the amyloid nucleation score is reported as 9.783 ± 0.038. For DSGVEMYLFNSRFLRSLGND, the amyloid nucleation score was 3.65 ± 0.052. With EYSRVLTGVFLIQSYCKFGN the amyloid nucleation score was -0.219 ± 0.2. In the case of QGVSVLFGVSATLY, the amyloid nucleation score is reported as 1.19 ± 0.26. For NPALVFIHA, the amyloid nucleation score was “inactive”. In the case of LTDVYMVI, the amyloid nucleation score is reported as -0.395 ± 0.76. Substance VTSNGKRTWHVAAAFGAPGE has an amyloid nucleation score of 2.54 ± 0.12. Substance SSQCYYGPLFWSYEFRSYCV has an amyloid nucleation score of -0.162 ± 0.46. With IYNVSQLRTGTDMFNL the amyloid nucleation score was 0.721 ± 0.51. With APRRVSERFGSIVWVRRNS the amyloid nucleation score was -0.547 ± 0.55. In the case of KSVGVQALMLAKGIYFSING, the amyloid nucleation score is reported as 1.53 ± 0.28. With IGLANSSVCFSAFVTWYSLH the amyloid nucleation score was “inactive”. Substance LMSYVSSRNVSLQFIFVLPL has an amyloid nucleation score of 5.55 ± 0.069. With MRRTPFCVWKHIYRM the amyloid nucleation score was 0.182 ± 1.1. GFFVVISGRMKVYVQGKSWL showed an amyloid nucleation score of -0.325 ± 0.56. ILATSRVILVFCAMCACRWG showed an amyloid nucleation score of 2.98 ± 0.062. In the case of GVSGCANVSCMCADVYPIAP, the amyloid nucleation score is reported as 9.77 ± 0.045. For RISVYRPVGVLLF, the amyloid nucleation score was 0.755 ± 0.4. Substance SVNSC has an amyloid nucleation score of -0.654 ± 1. In the case of SCLVVLHIIAVISMVFSSIL, the amyloid nucleation score is reported as “inactive”. Work on YLSGLIIS yielded an amyloid nucleation score of -0.593 ± 1.1. FSLFISKMN showed an amyloid nucleation score of -0.474 ± 1. With RFDCLTVLLVFESYHFKTAG the amyloid nucleation score was -0.392 ± 0.31. TCGLFTA gave an amyloid nucleation score of 1.2 ± 0.44. With PSWDDFSSPEVS the amyloid nucleation score was -0.524 ± 0.39.

Assay: amyloid nucleation score (Sup35N fusion, yeast selection) (log enrichment); library NNK3; higher = more nucleation; inactive = no reads after selection
Summary of the method: as §1
With GYKGR the amyloid nucleation score was “inactive”. In the case of TFCSTCGDLWGSDFKCGFRV, the amyloid nucleation score is reported as “inactive”. In the case of SWLNKIAKVIST, the amyloid nucleation score is reported as “inactive”. With LFMSPVKSAWRIVCGNKFSQ the amyloid nucleation score was -0.642 ± 1.1. With IVILPM the amyloid nucleation score was “inactive”. In the case of RGIDYSHTL, the amyloid nucleation score is reported as “inactive”. With LKLYDGSFAFLKCTSFMFNG the amyloid nucleation score was 1.19 ± 0.17. For TVSLRCWARLSNTDFIRFNS, the amyloid nucleation score was “inactive”. With IMVAMGW the amyloid nucleation score was “inactive”. Work on ALALMFVEGCVIYMGIGC yielded an amyloid nucleation score of 1.93 ± 0.076. In the case of INWLWFLMHIIQI, the amyloid nucleation score is reported as “inactive”. With NAKPCSGPTMTGADEFPLCL the amyloid nucleation score was “inactive”. For IHCYCS, the amyloid nucleation score was “inactive”. With EDERNSMCTKPIRDHRLSWM the amyloid nucleation score was “inactive”. In the case of IVDNYVVAALLVVLS, the amyloid nucleation score is reported as “inactive”. With VGYMALQETILVIVDDGVTE the amyloid nucleation score was “inactive”. With RVKRYSMELGIFLDLRVT the amyloid nucleation score was “inactive”. In the case of SIPVSCGPLKKDVVREIRVK, the amyloid nucleation score is reported as “inactive”. For WCFYKSRLFVVQVVVLYNRF, the amyloid nucleation score was “inactive”. In the case of VIWVPVKIR, the amyloid nucleation score is reported as “inactive”. In the case of YSSVTTIVVPSLNAYILNCR, the amyloid nucleation score is reported as “inactive”. Work on KLYIQCIYPDLVVINCDSWN yielded an amyloid nucleation score of 2.39 ± 0.073. In the case of ILSDMTGDHNSINFDMYSGI, the amyloid nucleation score is reported as “inactive”. For CNGFFCGMCCYTKRKMKYAI, the amyloid nucleation score was “inactive”. For WSNNMWYVRYSDFCISCLLV, the amyloid nucleation score was “inactive”. In the case of IYTLSTLLWFWSAWSILAVI, the amyloid nucleation score is reported as -0.197 ± 1.1. Work on FCNCNMFYDLCLCAHGMPSA yielded an amyloid nucleation score of 2.99 ± 0.067. With RSELASLKGCDIELVFTYQR the amyloid nucleation score was “inactive”. INVTLCCTMYD showed an amyloid nucleation score of 3.02 ± 0.053. Substance AAGRGWTGEALMHRNAQCDS has an amyloid nucleation score of 0.244 ± 0.87. In the case of GLCSFR, the amyloid nucleation score is reported as “inactive”. For RILHFTICPNQWTRYKVDS, the amyloid nucleation score was “inactive”. In the case of YASDWVRRPGRN, the amyloid nucleation score is reported as “inactive”. With DDDRGGSTMTATHRRRMWHL the amyloid nucleation score was “inactive”. In the case of SLRSCGSGLRSYRAVKTLPG, the amyloid nucleation score is reported as “inactive”. In the case of GIVSYCICIFGNFQK, the amyloid nucleation score is reported as 2.64 ± 0.064. LFHIQNESGVSYIKWFSLSI gave an amyloid nucleation score of 0.553 ± 0.27. For FDVIS, the amyloid nucleation score was “inactive”. For SKTHRSVFMMAVIELKPTNS, the amyloid nucleation score was “inactive”. With PELLEHYMSHF the amyloid nucleation score was “inactive”. Substance SCLRGNTAKFFSKVSRVCDK has an amyloid nucleation score of 0.133 ± 0.98. With SLIQY the amyloid nucleation score was “inactive”. In the case of MWVLSV, the amyloid nucleation score is reported as “inactive”. In the case of SNLLCEALETRLYPRLKHVR, the amyloid nucleation score is reported as “inactive”. In the case of FFNYIIMEIHFFALLSHRKH, the amyloid nucleation score is reported as “inactive”. For FLNRSTAIWKYRLIAQRVGD, the amyloid nucleation score was “inactive”. Substance MYFSFLW has an amyloid nucleation score of 0.18 ± 0.47. For VEWMFTEMSVCLE, the amyloid nucleation score was “inactive”. WRSCSKDHLCFQSPVMPLSR showed an amyloid nucleation score of 0.214 ± 0.42. With SHFAEQGLSCSLSYSFSTIL the amyloid nucleation score was “inactive”. In the case of WDYILGFGHVSQRARMESFD, the amyloid nucleation score is reported as “inactive”. In the case of EEVSVA, the amyloid nucleation score is reported as “inactive”. With RVYKSV the amyloid nucleation score was “inactive”.
